Changes are numbered by the printed parent chain. Blank lines part the entries; values can stand above or below the binder they belong to.
Assays:
[1] = target: T1, claudin-18.2 antigen (manufacturer: GenScript, batch number: R50092011) (UniProt P56856-2 1-261, limits assumed); experiment: ELISA, plate coated with claudin-18.2 antigen
T1 construct: Bought antigen
T1 sequence (looked up): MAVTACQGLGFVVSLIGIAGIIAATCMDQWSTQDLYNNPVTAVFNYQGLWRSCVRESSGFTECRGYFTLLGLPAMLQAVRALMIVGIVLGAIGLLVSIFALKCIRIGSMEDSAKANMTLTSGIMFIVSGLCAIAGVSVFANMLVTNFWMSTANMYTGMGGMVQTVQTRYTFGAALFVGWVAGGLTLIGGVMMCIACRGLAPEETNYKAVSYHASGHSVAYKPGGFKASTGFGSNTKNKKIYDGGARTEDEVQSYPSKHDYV
Description: The ELISA plates were washed three times with PBST and blocked with 5% PBS-milk for 2 h at room temperature. The ELISA plate was washed three times with PBST, and the diluted antibodies were added to the ELISA plate, 30 μL per well, and incubated at room temperature for 60 min. The plates were washed three times with PBST and incubated with anti-human IgG-Fc-HRP (abcam, ab97225) for 50 min at room temperature. The plate was washed 12 times with PBST, and TMB was added, 30 μL per well. The reaction was terminated with stop solution and OD450 was read. The ELISA affinity EC50 was calculated.

[2] = target: T1, claudin-18.2 antigen (manufacturer: …); experiment: Gator label-free kinetics, antibody loaded, antigen 2000-500 nM
Description: The GATOR instrument and associated software were opened and the Kinetics experimental mode was selected. After data collection, Kinetics fitting was performed to calculate the affinity kinetic parameters. The correlation coefficient R² of all antibodies in the Global fitting mode was greater than 0.95, which met the system suitability requirements and the results were reliable.

B1: 1B6-huVH1-HC (IgG1) huVL1 (antibody)
heavy: not shown
light: DIVMTQSPSSLSVSVGDRVTMTCKSSQSLFNSGNQKNYLTWYQQKPGKAPKLLIYWASTRESGVPDRFSGSGSGTDFTLTISSVQPEDFATYFCQNDYSYPLTFGGGTKLEIKRTVAAPSVFIFPPSDEQLKSGTASVVCLLNNFYPREAKVQWKVDNALQSGNSQESVTEQDSKDSTYSLSSTLTLSKADYEKHKVYACEVTHQGLSSPVTKSFNRGEC
notes: humanized 1B6, human IgG1, kappa
EC50 [1]: 0.0248 µg/mL
Kd [2]: 63.3 nM
koff [2]: 0.00123 s⁻¹
kon [2]: 19400 M⁻¹ s⁻¹

B2: 1B6-huVH1huVL1 (antibody, human IgG4 S228P, kappa)
heavy: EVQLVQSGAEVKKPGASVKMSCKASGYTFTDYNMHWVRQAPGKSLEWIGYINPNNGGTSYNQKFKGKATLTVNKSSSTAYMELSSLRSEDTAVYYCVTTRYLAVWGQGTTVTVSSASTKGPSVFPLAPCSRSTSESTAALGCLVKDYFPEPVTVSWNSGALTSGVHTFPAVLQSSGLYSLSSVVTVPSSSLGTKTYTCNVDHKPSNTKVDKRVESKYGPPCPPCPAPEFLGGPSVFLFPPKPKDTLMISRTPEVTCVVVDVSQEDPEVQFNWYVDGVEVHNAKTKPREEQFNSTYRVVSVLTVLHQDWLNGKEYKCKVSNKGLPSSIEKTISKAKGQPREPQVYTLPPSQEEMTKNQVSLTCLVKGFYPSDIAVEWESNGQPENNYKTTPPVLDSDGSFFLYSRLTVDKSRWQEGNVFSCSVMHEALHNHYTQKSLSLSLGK
light: B1 light
notes: humanized 1B6, human IgG4, kappa
EC50 [1]: 0.0839 µg/mL
Kd [2]: 98.8 nM
koff [2]: 0.00222 s⁻¹
kon [2]: 22400 M⁻¹ s⁻¹

B3: 1B6-huVH3-HC (IgG1) huVL2 (antibody)
heavy: not shown
light: B1 light with V3Q, V13A, D66S, V84L, F93Y
notes: as for B1
EC50 [1]: 0.0614 µg/mL
Kd [2]: 10.9 nM
koff [2]: 0.00012 s⁻¹
kon [2]: 11100 M⁻¹ s⁻¹

B4: 1B6-huVH4-HC (IgG1) huVL2 (antibody)
heavy: not shown
light: B1 light with V3Q, V13A, D66S, V84L, F93Y
notes: as for B1
EC50 [1]: 0.0431 µg/mL
Kd [2]: 20.5 nM
koff [2]: 0.000207 s⁻¹
kon [2]: 10100 M⁻¹ s⁻¹

B5: 1B6-huVH4-HC (IgG1) huVL3 (antibody)
heavy: not shown
light: B1 light with V3Q, V13A, M21I, K24R, D66S, V84L, F93Y
notes: as for B1
EC50 [1]: 0.0519 µg/mL
Kd [2]: 43.9 nM
koff [2]: 0.000799 s⁻¹
kon [2]: 18200 M⁻¹ s⁻¹

B6: 1B6-huVH5-HC (IgG1) huVL2 (antibody)
heavy: not shown
light: B1 light with V3Q, V13A, D66S, V84L, F93Y
notes: as for B1
EC50 [1]: 0.0298 µg/mL
Kd [2]: 59.7 nM
koff [2]: 0.00129 s⁻¹
kon [2]: 21600 M⁻¹ s⁻¹

B7: 1B6-huVH2-HC (IgG1) huVL1 (antibody)
heavy: not shown
light: B1 light
notes: as for B1
EC50 [1]: 0.0403 µg/mL
Kd [2]: 9.84 nM
koff [2]: 0.000101 s⁻¹
kon [2]: 10300 M⁻¹ s⁻¹

Results, then the binder that gave them:

EC50 [1]: 0.0725 µg/mL
Kd [2]: 9.64 nM
koff [2]: 0.000116 s⁻¹
kon [2]: 12100 M⁻¹ s⁻¹
B8: 1B6-huVH3-HC (IgG1) huVL3 (antibody)
heavy: not shown
light: B1 light with V3Q, V13A, M21I, K24R, D66S, V84L, F93Y
notes: as for B1

EC50 [1]: 0.035 µg/mL
Kd [2]: 76.8 nM
koff [2]: 0.00175 s⁻¹
kon [2]: 22700 M⁻¹ s⁻¹
B9: 1B6-huVH5-HC (IgG1) huVL3 (antibody)
heavy: not shown
light: B1 light with V3Q, V13A, M21I, K24R, D66S, V84L, F93Y
notes: as for B1

EC50 [1]: 0.0162 µg/mL
Kd [2]: 86.7 nM
koff [2]: 0.00171 s⁻¹
kon [2]: 19700 M⁻¹ s⁻¹
B10: 1B6-huVH1-HC (IgG1) huVL2 (antibody)
heavy: not shown
light: B1 light with V3Q, V13A, D66S, V84L, F93Y
notes: as for B1

EC50 [1]: 0.0592 µg/mL
Kd [2]: 7.65 nM
koff [2]: 7.83e-05 s⁻¹
kon [2]: 10200 M⁻¹ s⁻¹
B11: 1B6-huVH3-HC (IgG1) huVL1 (antibody)
heavy: not shown
light: B1 light
notes: as for B1

EC50 [1]: 0.0301 µg/mL
Kd [2]: 11.8 nM
koff [2]: 0.00013 s⁻¹
kon [2]: 11000 M⁻¹ s⁻¹
B12: 1B6-huVH2-HC (IgG1) huVL2 (antibody)
heavy: not shown
light: B1 light with V3Q, V13A, D66S, V84L, F93Y
notes: as for B1
